From article PMC5696648

Tests used:
[1] = tested on: LexA WT (Escherichia coli); assay: EMSA
[2] = tested on: LexA S119A (Escherichia coli); assay: EMSA

44-bp SOS consensus operator duplex
Kd [1]: 47 nM
Kd [2]: 43 nM
